Test results as given in patent EP2061494B1 (Universita' Degli Studi di Torino, dated 2012).

Target: Src kinase (endogenous protein of MCF7 cells) (human, UniProt P12931 2-536)
Assay: cell-based or functional assay

Src activity induced by adhesion to fibronectin (in vitro kinase assay) after shRNA down-regulation of p140Cap: 5 fold
B1: p140Cap (endogenous protein of MCF7 human breast carcinoma cell extracts) (other, UniProt Q9C0H9 1-1183, looked up)
chain: MGNAPSQDPERSSPPMLSADDAEYPREYRTLGGGGGGGSGGRRFSNVGLVHTSERRHTVIAAQSLEALSGLQKADADRKRDAFMDHLKSKYPQHALALRGQQDRMREQPNYWSFKTRSSRHTQGAQPGLADQAAKLSYASAESLETMSEAELPLGFSRMNRFRQSLPLSRSASQTKLRSPGVLFLQFGEETRRVHITHEVSSLDTLHALIAHMFPQKLTMGMLKSPNTAILIKDEARNVFYELEDVRDIQDRSIIKIYRKEPLYAAFPGSHLTNGDLRREMVYASRESSPTRRLNNLSPAPHLASGSPPPGLPSGLPSGLQSGSPSRSRLSYAGGRPPSYAGSPVHHAAERLGGAPAAQGVSPSPSAILERRDVKPDEDLASKAGGMVLVKGEGLYADPYGLLHEGRLSLAAAAGDPFAYPGAGGLYKRGSVRSLSTYSAAALQSDLEDSLYKAAGGGGPLYGDGYGFRLPPSSPQKLADVAAPPGGPPPPHSPYSGPPSRGSPVRQSFRKDSGSSSVFAESPGGKTRSAGSASTAGAPPSELFPGPGERSLVGFGPPVPAKDTETRERMEAMEKQIASLTGLVQSALLRGSEPETPSEKIEGSNGAATPSAPCGSGGRSSGATPVSGPPPPSASSTPAGQPTAVSRLQMQLHLRGLQNSASDLRGQLQQLRKLQLQNQESVRALLKRTEAELSMRVSEAARRQEDPLQRQRTLVEEERLRYLNDEELITQQLNDLEKSVEKIQRDVSHNHRLVPGPELEEKALVLKQLGETLTELKAHFPGLQSKMRVVLRVEVEAVKFLKEEPQRLDGLLKRCRGVTDTLAQIRRQVDEGVWPPPNNLLSQSPKKVTAETDFNKSVDFEMPPPSPPLNLHELSGPAEGASLTPKGGNPTKGLDTPGKRSVDKAVSVEAAERDWEEKRAALTQYSAKDINRLLEETQAELLKAIPDLDCASKAHPGPAPTPDHKPPKAPHGQKAAPRTEPSGRRGSDELTVPRYRTEKPSKSPPPPPPRRSFPSSHGLTTTRTGEVVVTSKKDSAFIKKAESEELEVQKPQVKLRRAVSEVARPASTPPIMASAIKDEDDEDRIIAELESGGGSVPPMKVVTPGASRLKAAQGQAGSPDKSKHGKQRAEYMRIQAQQQATKPSKEMSGSNETSSPVSEKPSASRTSIPVLTSFGARNSSISF
